Where “and” joins values, the source holds several entries; their conditions need not be identical. Equal entries are not always repeated. Where two headings read alike, the source gives them in different places.
Target: ABCA1 (Homo sapiens, UniProt O95477)
Assay: ABCA1-mediated cholesterol efflux from BHK-ABCA1 cells after pre-incubation of acceptor in human plasma
Format: cell-based
Set-up: expressed in transfected cells; host or cells: BHK cells, stably transfected, induced with 10 nM mifepristone (gift of J. F. Oram)
Procedure: We investigated cholesterol efflux from BHK cells after adding lipid free CS-6253 to media cell culture or to human EDTA-plasma which had been stored at -80°C. BHK overexpressing human ABCA1 were labeled with 2 μCi/ml ^3H-free cholesterol (Perkin Elmer, Norwalk, Connecticut) for 24 h. Afterward, BHK-ABCA1 were stimulated with 10 nmol/l mifepristone for 18–20 h (13). Cells were incubated with various doses of acceptor in media for 4 h at 37°C. Alternatively, plasma samples were first pre-incubated for 5 min at 37°C in plasma at mole ratios (10:1 or 1:1 relative to plasma apo A-I). To obtain the HDL fraction, apoB lipoproteins were precipitated from plasma by polyethylene glycol (PEG). Also, increased doses of lipid free CS-6253 and nHDL-CS-6253 were tested for cholesterol efflux after incubation with human plasma for optimum 1h at 37°C. ^3[H]-cholesterol loaded BHK cells expressing ABCA1 were incubated with 2.8% apoB depleted plasma samples [19] for 4 h for the efflux assays. Lipid free apo A-I and nHDL-apo A-I were used as control, nHDL-CS-6253 and nHDL-apo A-I were generated after incubation with BHK cells expressing ABCA1. Direct comparisons with peptide ATI-5261 are provided using identical protocols (12).
Fig 7 Dose dependent effects of pre-incubation of plasma with lipid free CS-6253, or nHDL-CS-6253 on ABCA1 cholesterol efflux. A. Increased doses of lipid free CS-6253 or apo A-I were added to normolipidemic plasma and incubated for 1h at 37°C. A volume of 2.8% of HDL fractions isolated by PEG was used for the measurements of cholesterol efflux from BHK cells expressing ABCA1 and mock cells. […] B. nHDL-CS-6253 and nHDL-apo A-I were generated as indicated above. nHDL particles were incubated in plasma for 1h at 37°C, and specific HDL fractions isolated by PEG were subjected to cholesterol efflux in ^3[H]-radiolabelled BHK cells. […] C. Mobilization of cholesterol efflux of increasing concentrations of peptide: plasma apo A-I molar ratios: (1:0) (closed circles), (1:10) (upright closed triangles), and (1:1) (closed squares). (C inset). The double reciprocal-plot was used to calculate the apparent appKm of the efflux activity in peptide: plasma with indicated ratios. Kinetics values are as follows, molar ratio of plasma apo A-I: CS-6253 (1:0); appKm (28±0.07 μM). Molar ratio of plasma apo A-I: CS-6253 (1:1); appKm (4.17±0.47 μM). Molar ratio of plasma apo A-I: CS-6253 (1:10); appKm (0.71±0.46 μM). D. Lipid free CS-6253 was incubated with normolipidemic plasma, using peptide: apo A-I mole ratio of (1:1) for 5 min at 37°C versus plasma alone. Isolated HDL fractions by PEG were separated by 2D-PAGGE and HDL subpopulations were detected by apo A-I Western blot. Molecular size markers are shown. In all experiments, efflux of ^3[H]cholesterol is shown as means ± SD of triplicate experiments.

Chain of ABCA1 (O95477 whole entry): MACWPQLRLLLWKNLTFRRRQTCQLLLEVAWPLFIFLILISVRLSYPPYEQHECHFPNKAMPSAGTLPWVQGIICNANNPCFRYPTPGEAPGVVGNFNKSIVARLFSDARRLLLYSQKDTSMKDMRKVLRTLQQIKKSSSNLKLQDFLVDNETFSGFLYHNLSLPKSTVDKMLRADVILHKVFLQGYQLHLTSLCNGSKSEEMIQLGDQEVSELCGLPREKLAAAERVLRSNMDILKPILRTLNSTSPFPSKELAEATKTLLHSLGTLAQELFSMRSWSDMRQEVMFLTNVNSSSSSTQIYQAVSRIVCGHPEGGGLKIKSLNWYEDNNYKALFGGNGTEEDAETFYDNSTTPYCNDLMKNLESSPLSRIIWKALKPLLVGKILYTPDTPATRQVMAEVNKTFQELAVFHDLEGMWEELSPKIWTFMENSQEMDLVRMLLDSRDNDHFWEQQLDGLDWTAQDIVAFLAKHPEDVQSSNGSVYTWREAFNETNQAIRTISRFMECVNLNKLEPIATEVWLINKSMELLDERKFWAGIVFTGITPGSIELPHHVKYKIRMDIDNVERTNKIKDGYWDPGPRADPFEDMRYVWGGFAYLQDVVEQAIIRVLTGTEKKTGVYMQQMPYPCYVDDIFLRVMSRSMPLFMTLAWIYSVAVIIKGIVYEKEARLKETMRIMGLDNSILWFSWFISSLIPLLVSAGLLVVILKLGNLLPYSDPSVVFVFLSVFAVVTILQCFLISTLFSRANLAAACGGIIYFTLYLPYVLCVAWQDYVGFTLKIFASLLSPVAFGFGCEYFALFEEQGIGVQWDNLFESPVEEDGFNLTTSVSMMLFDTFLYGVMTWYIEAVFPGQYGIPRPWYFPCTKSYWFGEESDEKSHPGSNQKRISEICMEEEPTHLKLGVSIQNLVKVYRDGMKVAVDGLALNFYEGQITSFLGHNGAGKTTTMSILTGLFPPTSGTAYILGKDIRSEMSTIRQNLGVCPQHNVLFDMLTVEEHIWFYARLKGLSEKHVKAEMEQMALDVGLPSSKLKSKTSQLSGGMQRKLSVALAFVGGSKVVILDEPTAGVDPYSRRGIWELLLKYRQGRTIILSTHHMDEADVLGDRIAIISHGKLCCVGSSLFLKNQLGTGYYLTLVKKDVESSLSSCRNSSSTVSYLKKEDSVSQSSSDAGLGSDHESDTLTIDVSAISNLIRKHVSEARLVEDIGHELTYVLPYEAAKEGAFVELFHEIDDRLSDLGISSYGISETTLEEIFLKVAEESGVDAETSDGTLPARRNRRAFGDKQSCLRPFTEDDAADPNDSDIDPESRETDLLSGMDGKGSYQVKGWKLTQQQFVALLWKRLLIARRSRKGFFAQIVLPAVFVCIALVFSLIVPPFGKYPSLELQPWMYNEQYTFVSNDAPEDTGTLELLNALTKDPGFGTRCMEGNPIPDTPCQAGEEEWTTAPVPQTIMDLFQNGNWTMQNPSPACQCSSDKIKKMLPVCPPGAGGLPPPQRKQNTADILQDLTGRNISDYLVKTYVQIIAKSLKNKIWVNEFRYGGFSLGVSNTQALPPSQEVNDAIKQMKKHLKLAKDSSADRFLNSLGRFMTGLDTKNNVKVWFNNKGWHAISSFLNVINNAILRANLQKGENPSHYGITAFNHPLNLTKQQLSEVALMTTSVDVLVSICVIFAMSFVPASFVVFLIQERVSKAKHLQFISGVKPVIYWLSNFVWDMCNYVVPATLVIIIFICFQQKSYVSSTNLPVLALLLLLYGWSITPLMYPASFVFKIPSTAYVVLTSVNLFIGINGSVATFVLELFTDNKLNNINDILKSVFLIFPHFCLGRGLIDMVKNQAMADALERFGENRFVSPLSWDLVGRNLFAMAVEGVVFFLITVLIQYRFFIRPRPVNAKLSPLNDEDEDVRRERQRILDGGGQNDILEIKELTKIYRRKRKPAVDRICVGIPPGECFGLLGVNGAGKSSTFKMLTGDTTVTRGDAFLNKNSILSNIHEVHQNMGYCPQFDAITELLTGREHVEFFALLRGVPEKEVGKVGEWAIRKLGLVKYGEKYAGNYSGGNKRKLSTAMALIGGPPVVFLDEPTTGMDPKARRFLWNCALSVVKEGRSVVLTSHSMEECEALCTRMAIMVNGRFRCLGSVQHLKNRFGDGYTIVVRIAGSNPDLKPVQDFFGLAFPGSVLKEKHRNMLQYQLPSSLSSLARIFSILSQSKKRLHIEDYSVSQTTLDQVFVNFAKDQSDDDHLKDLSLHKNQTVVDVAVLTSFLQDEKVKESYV

## apolipoprotein A-I [apo A-I]
Acceptor in human plasma 1 h 37°C, 2.8% HDL fraction, 4 h, BHK-ABCA1, Fig 7A/7B, read-out: Km, cholesterol efflux, plasma (Fig 7)
  Km: 0.03 ± 0.008 µM
Acceptor in human plasma 1 h 37°C, 2.8% HDL fraction, BHK-ABCA1, Fig 7A/7B
  Vmax, cholesterol efflux, plasma (Fig 7): 9.26±0.29 % efflux/4h
Efflux condition plasma, 4 h, BHK-ABCA1, Table 1, mean ± SD
  Vmax, cholesterol efflux, plasma (Table 1): 8.81±0.33 % efflux/4h
Efflux condition plasma, 4 h, BHK-ABCA1, Table 1, mean ± SD, read-out: Km, cholesterol efflux, plasma (Table 1)
  Km: 0.02 ± 0.0091 µM
No peptide, 5 min, 37°C, efflux 4 h, Lineweaver-Burk, listed as plasma apo A-I
  appKm, HDL specific cholesterol efflux, plasma apo A-I alone: 28 ± 0.072 µM and 28 ± 0.07 µM
